Source: patent publication US20210171647A1 (WUXI BIOLOGICS SHANGHAI, published 2021)
Substitutions are numbered along the chain they refer to.

Tests used:
Test in all cases: ELISA, antibody coated, OX40-ECD.His mutant supernatant; relative to silent alanine substitutions;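 note: captured OX40 mutant protein detected with HRP-labelled anti-His antibody, absorbance read-out, scaled to the mean signal of control mutants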
human OX40-ECD.His P48A = target: T1, human OX40-ECD.His P48A (human, UniProt P43489 29-214)
T1 construct: extracellular domain; not shown: C-terminal His-tag
T1 sequence (looked up): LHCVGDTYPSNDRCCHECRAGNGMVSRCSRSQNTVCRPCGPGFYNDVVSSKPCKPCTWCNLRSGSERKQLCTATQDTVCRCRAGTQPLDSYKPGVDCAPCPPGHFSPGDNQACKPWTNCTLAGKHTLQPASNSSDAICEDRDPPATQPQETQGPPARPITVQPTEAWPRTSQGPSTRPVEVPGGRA

human OX40-ECD.His V75A = target: T2, human OX40-ECD.His V75A (human, UniProt P43489 29-214)
T2 construct: extracellular domain; not shown: C-terminal His-tag
T2 sequence (looked up): T1 sequence (looked up) with A20P, V47A

human OX40-ECD.His S38A = target: T3, human OX40-ECD.His S38A (human, UniProt P43489 29-214)
T3 construct: extracellular domain; not shown: C-terminal His-tag
T3 sequence (looked up): T1 sequence (looked up) with S10A, A20P

human OX40-ECD.His S162A = target: T4, human OX40-ECD.His S162A (human, UniProt P43489 29-214)
T4 construct: extracellular domain; not shown: C-terminal His-tag
T4 sequence (looked up): T1 sequence (looked up) with A20P, S134A

human OX40-ECD.His G68A = target: T5, human OX40-ECD.His G68A (human, UniProt P43489 29-214)
T5 construct: extracellular domain; not shown: C-terminal His-tag
T5 sequence (looked up): T1 sequence (looked up) with A20P, G40A

human OX40-ECD.His L149A = target: T6, human OX40-ECD.His L149A (human, UniProt P43489 29-214)
T6 construct: extracellular domain; not shown: C-terminal His-tag
T6 sequence (looked up): T1 sequence (looked up) with A20P, L121A

human OX40-ECD.His R47A = target: T7, human OX40-ECD.His R47A (human, UniProt P43489 29-214)
T7 construct: extracellular domain; not shown: C-terminal His-tag
T7 sequence (looked up): T1 sequence (looked up) with R19A, A20P

human OX40-ECD.His F133A = target: T8, human OX40-ECD.His F133A (human, UniProt P43489 29-214)
T8 construct: extracellular domain; not shown: C-terminal His-tag
T8 sequence (looked up): T1 sequence (looked up) with A20P, F105A

human OX40-ECD.His D137A = target: T9, human OX40-ECD.His D137A (human, UniProt P43489 29-214)
T9 construct: extracellular domain; not shown: C-terminal His-tag
T9 sequence (looked up): T1 sequence (looked up) with A20P, D109A

human OX40-ECD.His P80A = target: T10, human OX40-ECD.His P80A (human, UniProt P43489 29-214)
T10 construct: extracellular domain; not shown: C-terminal His-tag
T10 sequence (looked up): T1 sequence (looked up) with A20P, P52A

Fold Change (human OX40-ECD.His P48A): 0.981 | Fold Change (human OX40-ECD.His V75A): 0.994 | Fold Change (human OX40-ECD.His S38A): 0.997 | Fold Change (human OX40-ECD.His S162A): 0.998 | Fold Change (human OX40-ECD.His G68A): 0.998 | Fold Change (human OX40-ECD.His L149A): 1 | Fold Change (human OX40-ECD.His R47A): 1 | Fold Change (human OX40-ECD.His F133A): 0.627 | Fold Change (human OX40-ECD.His D137A): 0.851 | Fold Change (human OX40-ECD.His P80A): 0.944
B1: 1.134.9-u1-IgG1L (antibody, V domains shown)
VH: QVQLQESGPGLVKPSGTLSLTCAVSGGSISSYNWWSWVRQPPGKGLEWIGEIYHGGNTNYNPSLKSRVTMSVDNSKNQFSLKLSSVTAADTAVYYCARAPGDWGGSPYFDFWGQGTLVTVSS
VL: SSELTQDPAVSVALGQTVRITCQGDNLRTYYASWYQQKPGQAPILLIYGRNKRPSGIPDRFSGSSSGNTASLTITGAQAEDEAAYYCNSRDSSGNPVVFGGGTKLTVL
notes: fully human IgG1, lambda
